Assay results: PMC11973759 (Journal for Immunotherapy of Cancer, 2025)
Where no end group is shown, it is not given here.

B1: biotinylated TAMpep (peptide)
chain: VLTTGLPALISWIKRKRQQ
modifications: also: biotin, position not given here

How the values were obtained:
[1] = biological target: B1; assay: SPR
[2] = biological target: CD18 cysteine-rich domain (Cloud-Clone); assay: SPR

Binder | Kd [1] | Kd [2]
CD18 I-domain (Cloud-Clone) (domain or fragment) GYPIDLYYLMDLSYSMLDDLRNVKKLGGDLLRALNEITESGRIGFGSFVDKTVLPFVNTHPDKLRNPCPNKEKECQPPFAFRHVLKLTNNSNQFQTEVGKQLISGNLDAPEGGLDAMMQVAACPEEIGWRNVTRLLVFATDDGFHFAGDGKLGAILTPNDGRCHLEDNLYKRSNEFDYPSVGQLAHKLAENNIQPIFAVTSRMVKTYEKLTEIIPKSAVGELSEDSSNVVHLIKNAYNKL | 4.7 nM | 
B1 |  | 0.185 nM
